One experiment deals with human FSH (human) (UniProt P01215). Briefly: photoaffinity labeling, SDS-PAGE autoradiograph.
Experiment [1] concerns the target LHR I^577A mutant (human) (UniProt P22888). Briefly: 125I-hCG displacement / Scatchard. Particulars: ligand.
Experiment [2] has as its target LHR K^573A mutant (human) (UniProt P22888). Briefly: 125I-hCG displacement / Scatchard. The following applies: ligand.
Experiment [3] has as its target LHR L^576A mutant (human) (UniProt P22888). Briefly: 125I-hCG displacement / Scatchard. The following applies: ligand.
The target in experiment [4] is LHR N^581A mutant (human) (UniProt P22888). Briefly: 125I-hCG displacement / Scatchard. Particulars: ligand.
LHR N^581A mutant (human), sequence (P22888 27-699, change not shown): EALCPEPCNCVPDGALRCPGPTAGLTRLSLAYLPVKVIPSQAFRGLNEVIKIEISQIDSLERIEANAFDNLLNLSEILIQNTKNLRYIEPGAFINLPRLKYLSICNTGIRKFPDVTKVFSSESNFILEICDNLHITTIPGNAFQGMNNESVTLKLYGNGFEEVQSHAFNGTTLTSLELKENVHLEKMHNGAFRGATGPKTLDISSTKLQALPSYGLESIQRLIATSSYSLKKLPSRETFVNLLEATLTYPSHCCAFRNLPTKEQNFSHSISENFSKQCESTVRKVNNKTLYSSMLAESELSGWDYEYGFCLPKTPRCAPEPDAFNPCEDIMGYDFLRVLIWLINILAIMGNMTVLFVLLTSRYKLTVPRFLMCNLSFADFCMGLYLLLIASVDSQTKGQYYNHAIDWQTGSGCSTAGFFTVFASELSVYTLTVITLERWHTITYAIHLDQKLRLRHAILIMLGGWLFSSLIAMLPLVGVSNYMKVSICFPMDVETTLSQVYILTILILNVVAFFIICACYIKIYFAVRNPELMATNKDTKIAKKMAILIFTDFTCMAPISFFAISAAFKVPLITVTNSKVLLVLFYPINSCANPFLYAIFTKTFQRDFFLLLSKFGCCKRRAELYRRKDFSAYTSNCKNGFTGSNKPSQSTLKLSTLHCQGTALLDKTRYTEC
Experiment [5] has as its target LHR P^575A mutant (human) (UniProt P22888). Briefly: 125I-hCG displacement / Scatchard. Particulars: ligand.
Experiment [6] concerns the target LHR T^578A mutant (human) (UniProt P22888). Briefly: 125I-hCG displacement / Scatchard. Particulars: ligand.
Experiment [7] concerns the target LHR T^580A mutant (human) (UniProt P22888). Briefly: 125I-hCG displacement / Scatchard. The following applies: ligand.
Experiment [8] has as its target LHR V^579A mutant (human) (UniProt P22888). Briefly: 125I-hCG displacement / Scatchard. Particulars: ligand.
The target of experiment [9] is LHR^K583A (human) (UniProt P22888). Briefly: 125I-hCG displacement / Scatchard. Particulars: ligand.
LHR^K583A (human), sequence (P22888 27-699, stated change not applied): as the sequence (P22888 27-699, change not shown) above
Experiment [10] has as its target LHR^S582A (human) (UniProt P22888). Briefly: 125I-hCG displacement / Scatchard. Particulars: ligand.
Experiment [11] concerns the target LHR^V574A (human) (UniProt P22888). Briefly: 125I-hCG displacement / Scatchard. Particulars: ligand.
Experiment [12] has as its target LHR^S582A (human) (UniProt P22888). Briefly: cell-based or functional assay.
Experiment [13] concerns the target LHR^V574A (human) (UniProt P22888). Briefly: cell-based or functional assay.
The target of experiment [14] is LHR^K583A (human) (UniProt P22888). Briefly: 125I-hCG competition binding on HEK293 cells, Scatchard.

Bounds are passed on as bounds.

What is called Kd is the concentration at which binding is half-saturated. Low values mean higher affinity, high ones lower affinity.

LHR^V574A (human), sequence (P22888 27-699, stated change not applied): as the sequence (P22888 27-699, change not shown) above
LHR^S582A (human), sequence (P22888 27-699, stated change not applied): as the sequence (P22888 27-699, change not shown) above
LHR K^573A mutant (human), sequence (P22888 27-699, change not shown): as above
LHR P^575A mutant (human), sequence (P22888 27-699, change not shown): as above
LHR I^577A mutant (human), sequence (P22888 27-699, change not shown): as above
LHR L^576A mutant (human), sequence (P22888 27-699, change not shown): as above
LHR V^579A mutant (human), sequence (P22888 27-699, stated change not applied): as the sequence (P22888 27-699, change not shown) above
LHR T^578A mutant (human), sequence (P22888 27-699, change not shown): as above
LHR T^580A mutant (human), sequence (P22888 other isoform, or with tags, fused parts or gaps mutant): as the sequence (P22888 27-699, change not shown) above, with T576A counted along it

For the substance ^125I-FSHR^9-40F13Bpa (peptide), in the experiment with human FSH (human), the percent of FSH labeled is greater than 50%.
For the substance “hCG (from UniProt P01215 25-116; P0DN86 21-165)”, the Kd in [1] was found to be 0.746 nM; in experiment [2] it was 0.348 nM; in experiment [3] it was 0.43 nM; in experiment [4], 0.35 nM; in [5] it was 0.277 nM; in experiment [6], 0.299 nM. Also, the Kd was determined as 0.623 nM in experiment [7]; 0.985 nM in [8]; 0.195 nM with LHR^K583A (human) [9]; 0.942 nM with LHR^S582A (human) [10]; 0.24 nM with LHR^V574A (human) [11].
For the substance “hCG (from UniProt P01215 25-116; P0DN86 21-165) (ligand)”, in the experiment with LHR^S582A (human) [12], the IP1 (cpm) amounted to 15100 cpm; the IP1 maximum level, mutant/wild type was 1.09; the IP2 (cpm) is 900 cpm; the IP2 maximum level, mutant/wild type was determined as 1.29. In the experiment with LHR^S582A (human) [12], this substance displayed an IP3 (cpm) of 386 cpm; an IP3 maximum level, mutant/wild type of 1.38; an IPt (cpm) of 16200 cpm; an IPt maximum level, mutant/wild type of 1.11. In the experiment with LHR^V574A (human) [13], this substance showed an IP1 (cpm) of 2110 cpm; an IP1 maximum level, mutant/wild type of 0.15; an IP2 (cpm) of 180 cpm; an IP2 maximum level, mutant/wild type of 0.25. In the experiment with LHR^V574A (human) [13], this substance showed an IP3 (cpm) of 80 cpm; an IP3 maximum level, mutant/wild type of 0.39; an IPt (cpm) of 2230 cpm; an IPt maximum level, mutant/wild type of 0.15. Besides, the fold improvement of binding affinity over wild type in the experiment with LHR^K583A (human) [14] was 2 fold.

The values above are taken from patent US20050142135A1, “Agents and methods for modulating interactions between gonadotropin hormones and receptors” (University of Kentucky Research Foundation, priority 2003, published 2005).
